Reference: article PMC10395586
Several values for one entry are separate records, joined by “and”; a condition that tells them apart may be missing. Equal values may be shown once. Read-outs that look alike come from different tables or passages of the source.

Key:
Assay in all cases: native MS
[1] = target: cpTMV without any mutation at the S65 position (tobacco mosaic virus)
[2] = target: cpTMV-S65-3NY (tobacco mosaic virus)
[3] = target: cpTMV-S65-3NY (tobacco mosaic virus); remark: listed apart in the source
[4] = target: cpTMV-S65C (tobacco mosaic virus)
[5] = target: cpTMV-S65-pAF (tobacco mosaic virus)

cpTMV without any mutation at the S65 position
monomers per disk (monomers per disk) [1]: 16

cpTMV-S65-3NY
monomers per disk (monomers per disk) [2]: 16
monomers per disk (monomers per disk) [3]: 17

cpTMV-S65C
monomers per disk (monomers per disk) [4]: 16

cpTMV-S65-pAF
monomers per disk (two-disk stack) (monomers per disk) [5]: 16 and 17
